Assay results published in patent US20250388643A1, “GLUCAGON-LIKE PEPTIDE-2 COMPOSITIONS AND METHODS OF MAKING AND USING SAME” (Amunix Pharmaceuticals, Inc., priority 2011, published 2025).
Like-named read-outs stand apart in the source and are kept apart here. Marks after values point to notes of the source that are not given here.

Legend:
[1] = rat, in vivo
Experimental: The fusion protein GLP2-2G-XTEN_AE864 was evaluated for its pharmacokinetic properties in Wistar rats following SC administration of two different dosage levels. Prior to the experiment, catheters were surgically implanted into the jugular vein of female Wistar rats. The catheterized animals were randomized into two groups containing three rats each. The fusion protein GLP2-2G-XTEN (lot AP510) was administered to each rat via SC injection as follows: 1) Low Dose 2 mg/kg (25 nmol/kg); or 2) High Dose 16 mg/kg (200 nmol/kg). Blood samples (˜0.2 mL) were collected through the jugular vein catheter from each rat into prechilled heparinized tubes at pre-dose, 0.08, 4, 8, 24, 48, 72, 96, 120 and 168 hours after test compound administration (10 time points). Blood was processed into plasma by centrifugation, split into two aliquots for analysis by ELISA. The samples were analyzed for fusion protein concentration, performed by both anti-XTEN/anti-XTEN sandwich ELISA (AS1602) and anti-GLP2/anti-XTEN sandwich ELISA (AS1705) and the results were analyzed using WinNonLin to obtain the PK parameters. Terminal half life was fit from 48 to 168 hours.

[2] = set-up: species or system human
Source text: The cumulative results of the PK analyses were used to perform allometric scaling of GLP2-2G_AE864 terminal half-life, clearance and volume of distribution using data from three species (mouse, rat and monkey). Pharmacokinetic values for a 70 kg human were predicted by extrapolating the log linear relationship between body weight and each pharmacokinetic parameter, as shown in FIG. 17. […] The terminal half-life in humans can also be estimated using the predicted values for clearance (Cl) and volume of distribution (Vd) as 0.693×Vd/Cl.

B1: GLP2-2G-XTEN_AE864: fusion protein of GLP-2 with glycine at position 2 linked at the C-terminus to XTEN AE864; sequence of FIG. 28 (SEQ ID NO: 798) (protein)
chain: HGDGSFSDEMNTILDNLAARDFINWLIQTKITDGGSPAGSPTSTEEGTSESATPESGPGTSTEPSEGSAPGSPAGSPTSTEEGTSTEPSEGSAPGTSTEPSEGSAPGTSESATPESGPGSEPATSGSETPGSEPATSGSETPGSPAGSPTSTEEGTSESATPESGPGTSTEPSEGSAPGTSTEPSEGSAPGSPAGSPTSTEEGTSTEPSEGSAPGTSTEPSEGSAPGTSESATPESGPGTSTEPSEGSAPGTSESATPESGPGSEPATSGSETPGTSTEPSEGSAPGTSTEPSEGSAPGTSESATPESGPGTSESATPESGPGSPAGSPTSTEEGTSESATPESGPGSEPATSGSETPGTSESATPESGPGTSTEPSEGSAPGTSTEPSEGSAPGTSTEPSEGSAPGTSTEPSEGSAPGTSTEPSEGSAPGTSTEPSEGSAPGSPAGSPTSTEEGTSTEPSEGSAPGTSESATPESGPGSEPATSGSETPGTSESATPESGPGSEPATSGSETPGTSESATPESGPGTSTEPSEGSAPGTSESATPESGPGSPAGSPTSTEEGSPAGSPTSTEEGSPAGSPTSTEEGTSESATPESGPGTSTEPSEGSAPGTSESATPESGPGSEPATSGSETPGTSESATPESGPGSEPATSGSETPGTSESATPESGPGTSTEPSEGSAPGSPAGSPTSTEEGTSESATPESGPGSEPATSGSETPGTSESATPESGPGSPAGSPTSTEEGSPAGSPTSTEEGTSTEPSEGSAPGTSESATPESGPGTSESATPESGPGTSESATPESGPGSEPATSGSETPGSEPATSGSETPGSPAGSPTSTEEGTSTEPSEGSAPGTSTEPSEGSAPGSEPATSGSETPGTSESATPESGPGTSTEPSEGSAPG
For B1, the Cl [1] was 0.80 mL/h, the “T ½” value [1] was 43.6 h and the Vd [1] was 0.21 L/kg. It also gave a terminal half-life ([1]; sc) of 37.5 to 49.7 h, an AUCInf ([1]; sc, 2 mg/kg) of 530 µg·h/mL and a Vz ([1]; sc, 2 mg/kg) of 43.4 mL. The Cl [2] was 17* ml/hr, the “T ½” value [2] was 240* hr and the Vd [2] was 91* mL/kg.
